Laboratory results from the supplement of paper PMC7877785.
± gives the uncertainty stated by the source.

Test: self-splicing fitness, log relative to wild type (ln ratio); higher = more splicing; Tetrahymena group I intron in knt gene, E. coli kanamycin selection, DiMSum; sequences stand for … in CUCUCU…GGAGGGAAAAGUUAUCAGGCAUGCACCUGGUAGCUAGUCUUUAAACCAAUAGAUUGCAUCGGUUUAAAAGGCAAGACCGUCAAAUUGCGGGAAAGGGGUCAACAGCCGUUCAGUACCAAGUCUCAGGGGAAACUUUGAGAUGGCCUUGCAAAGGGUAUGGUAAUAAGCUGACGGACAUGGUCCUAACCACGCAGCCAAGUCCUAAGUCAACAGAUCUUCUGUUGAUAUGGAUGCAGUUCACAGACUAAAUGUCGGUCGGGGAAGAUGUAUUCUUCUCAUAAGAUAUAGUCGGACCUCUCCUUAAUGGGAGCUAGCGGAUGAAGUGAUGCAACACUGGAGCCGCUGGGAACUAAUUUGUAUGCGAAAGUAUAUUGAUUAGUUUUGGAGUACUCGUGGUCG
Method in brief: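 A randomised library covering all eight P1ex-region intron nucleotides was built with the intron in the knt kanamycin-resistance gene on pET-22b(+) and held in E. coli BL21(DE3). Cells were grown overnight at 37°C or 30°C on LB agar, with or without 25 μg/mL kanamycin, plus 100 μg/mL carbenicillin, 50 μM IPTG and 0.2% rhamnose, and pooled colonies were amplicon-sequenced on an Illumina HiSeq 2500. DiMSum fitness is the error-weighted combination of wild-type-normalised replicate fold changes, kanamycin versus none.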

Q: What does the source list for UUUUAGCAAUAUUACGAGCU?
A: self-splicing fitness (ln) (30 °C): -2.57 ± 0.33; self-splicing fitness (ln) (37 °C): -2.22 ± 0.31

Q: With UUUUAGCAAUAUUACGAUAA as the sequence, how does the “self-splicing fitness (ln)” value (30 °C) read?
A: Its value is -0.659 ± 0.14.

Q: What about the “self-splicing fitness (ln)” value (37 °C) of the same sequence?
A: The value was 0.144 ± 0.15.

Q: For UUUUAGCAAUAUUACGCAAU, which “self-splicing fitness (ln)” value (30 °C) is on record?
A: Its value is -2.98 ± 0.41.

Q: Which “self-splicing fitness (ln)” value (30 °C) does the source give for UUUUAGCAAUAUUACGCCGU here?
A: The value was -2.64 ± 0.32.

Q: And the “self-splicing fitness (ln)” value (37 °C)?
A: Its value is -2.8 ± 0.44.

Q: What does the source list for UUUUAGCAAUAUUACGCGGA?
A: self-splicing fitness (ln) (30 °C): -2 ± 0.17; self-splicing fitness (ln) (37 °C): -1.44 ± 0.17

Q: Which “self-splicing fitness (ln)” value (37 °C) does the source give for UUUUAGCAAUAUUACGCGGU here?
A: The value was -1.53 ± 0.45.

Q: What does the source list for UUUUAGCAAUAUUACGCUGA?
A: self-splicing fitness (ln) (30 °C): -1.89 ± 0.36; self-splicing fitness (ln) (37 °C): -2.31 ± 0.39

Q: For UUUUAGCAAUAUUACGCUUC, which “self-splicing fitness (ln)” value (37 °C) is on record?
A: Its value is -1.81 ± 0.34.

Q: Which results are given for UUUUAGCAAUAUUACGGCAU?
A: self-splicing fitness (ln) (30 °C): -2.8 ± 0.41; self-splicing fitness (ln) (37 °C): -0.972 ± 0.29

Q: Which “self-splicing fitness (ln)” value (30 °C) does the source give for UUUUAGCAAUAUUACGGCCG here?
A: The value was -0.37 ± 0.24.

Q: Which “self-splicing fitness (ln)” value (30 °C) does the source give for UUUUAGCAAUAUUACGGGAU here?
A: The value was -3.93 ± 0.32.

Q: And the “self-splicing fitness (ln)” value (37 °C)?
A: Its value is -1.48 ± 0.17.

Q: Which “self-splicing fitness (ln)” value (30 °C) does the source give for UUUUAGCAAUAUUACGUCAC here?
A: The value was -2.38 ± 0.37.

Q: For UUUUAGCAAUAUUACGUCUG, which “self-splicing fitness (ln)” value (30 °C) is on record?
A: Its value is -0.654 ± 0.14.

Q: What about the “self-splicing fitness (ln)” value (37 °C) of the same sequence?
A: Its value is -0.153 ± 0.16.

Q: What does the source list for UUUUAGCAAUAUUACGUGUU?
A: self-splicing fitness (ln) (30 °C): -4.5 ± 0.46; self-splicing fitness (ln) (37 °C): -3.09 ± 0.24

Q: Which “self-splicing fitness (ln)” value (30 °C) does the source give for UUUUAGCAAUAUUACGUUAG here?
A: Its value is -1.37 ± 0.13.

Q: And the “self-splicing fitness (ln)” value (37 °C)?
A: Its value is -2.02 ± 0.21.
